First the molecules themselves.
B1: MET-005 (peptide)
peptide: TFSYVDPVITSISPKYG
notes: also called IMA-MET-005; full-length MET-005

For orientation: Kd means the equilibrium constant for the complex coming apart.

In the first assay the target is T1, MHC molecule coded by the HLA-A*0201 allele (recombinant HLA-A*0201 heavy chain refolded with beta-2 … (human)). Briefly: tetramer production / HLA-A*0201 refolding with peptide.
In the case of B1, the binding result is listed as “no binding”.

The target in a further assay is T1, MHC molecule coded by the HLA-A*0201 …. Description: ELISA-based MHC refolding assay, recombinant HLA-A*0201 heavy chain + b2m + graded peptide. For orientation: An ELISA detects its analyte on a solid surface through an enzyme-linked reagent.
Consider YVDPVITSI (also called MET-005 derived MET-001) [MET-001], for which the Kd was 0.14 nM.

Take TMLARLASA (also called IMA-CSP-001) [CSP-001]: the Kd was 2.05 nM.

The target is the same in another assay. Description: ELISA-based MHC refolding assay.
For NLDTLMTYV (also called IMA-NLGN4X-001) [NLGN4X-001], the binding result was “binds”.

Regarding AIIDGVESV (also called IMA-PTP-003) [PTP-003], the binding result is listed as “binds”.

SLWAGVVVL (also called IMA-CHI-001) [CHI-001]: the binding result is given as “binds”.

Turning to LTFGDVVAV (also called IMA-FABP7-001) [FABP7-001], the binding result is on record as “binds”.

On to KIQEILTQV (also called IMA-IGF2BP3-001) [IGF2BP3-001], for which the binding result is on record as “binds”.

With ALWAWPSEL (also called IMA-BCA-002) [BCA-002], the binding result is reported as “binds”.

Regarding KVFAGIPTV (also called IMA-PTP-005) [PTP-005], the binding result was “binds”.

Regarding AMTQLLAGV (also called IMA-TNC-001) [TNC-001], the binding result is given as “binds”.

As to GLWHHQTEV (also called IMA-NRCAM-001) [NRCAM-001], the binding result was “binds”.

The record behind these values is patent US20110002963A1 (IMMATICS BIOTECHNOLOGIES, published 2011).
